First the molecules themselves.
B1: PRT-504 (protein)
chain: MITSVWTKGVTPPTDFIKGEDVFHAPYKAGQGWYDITKAFDGGDDLLCGAATAGNMLHWWFDQNKEYIEAYLKKHPEKQKIMFGDQELLDVRKAINTKGSQKNSELFNYFRDKAFPNLSARRLGVMPDLVLDMFINGYYLNVTKTQTTDVNRTYQEKDKRGGIFDAVFTRGDQSKLLTSRHDLKNKGLNEISQLIKQELTEGKALGLSHTYANVRINHVINLWGADFDADGNLEAIYVTDSDSNASIGMKKYFVGVNSAGKVAISAKEIKEDNIGAQVLGLFTLSTGQDIWNQTNLEHHHHHH
B2: PRT-518 (protein)
chain: MVTSVWTKGVTPPTDFIKGEDVFHAPYKAGQGWYDITKTFNGKDNLLCGAATAGNMLHWWFDQNKEYIEAYLKKHPEKQKIIFNNQELFDLKAAINTKGSQKNSELFNYFRDKAFPNLSARRLGVFPDLVLDMFINGYYLNVTKTQTTDVNRTYQEKDKRGGIFDAVFTRGVQSKLLTSRHDFKEKGLKEISDLIKQELTEGKALGLSHTYANVRINHVINLWGADFDSDGNLKAIYVTDSDTNASIGMKKYFVGVNSAGKVAISAKEIKEDNIGAQVLGLFTLSTGQDIWNQTNLEHHHHHH
B3: PRT-602 (protein)
chain: MANQEIRYSEVTPYHITSVWTKGVTPPANFTQGEDVFHAPYVANQGWYDITKTFNGKDDLLCGAATAGNMLHWWFDQNKDQIERYLEEHPEKQKINFNGEQMFDVKEAIDTKDSQTDSKLFEYFKEKAFPYLSTKHLGVFPDHVIDMFINGYRLSLTNHGPTPVKEGSKDPRGGIFDAVFTRGDQSKLLTSRHDFKEKTLKEISDLIKQELTEGKALGLSHTYANVRINHVINLWGADFDSEGNLKAIYVTDSDSNASIGMKKYYVGVNSAGKVAISAKEIEEDNIGAQVLGLFTLSTGQDIWNQTNLEHHHHHH
B4: PRT-693 (protein)
chain: MQITSVWTKGVIPPTPEQFRYNNEDVIHAPYLPNQGWYDITKTFNGGDNLLCGAATAGNMLHWWFDQNKTEIEAYLSKYPEKQKIIFNNQELFDLRAAINTKDSQTNSQLFNYFRDKAFPNLSARQLGVMPDLVLDMFINGYYLNVFKTQSTDVNRPYQDRDKRGGIFDHVFGRGDQTTLLTARHDLKNGTLNDISTLIKQELQSGKALALSHTYANVSISHVINLWGADFNAEGNLEAIYVTDSDANSSIGMKKYYVGVNAHGKVAISAKKIEGENIGAQVLGLFTLSSGKEIWQKLSLEHHHHHH
B5: PRT-486 (protein)
chain: MVTSVWTKGVTPPTDFIKGEDVFHAPYKAGQGWYDITKTFNGKDNLLCGAATAGNMLHWWFDQNKDQIERYLKEHPEKQKIIFNNQELFDLKAAIDTKDSQTDSKLFEYFKEKAFPYLSTKHLGVFPDHVLDMFINGYRLSLTNHGPTPVKEGSKDKRGGIFDAVFTRGVQSKLLTSRHDFKEKTLKEISDLIKQELTEGKALGLSHTYANVRINHVINLWGADFDSEGNLKAIYVTDSDTNASIGMKKYFVGVNSAGKVAISAKEIKEDNIGAQVLGLFTLSTGQDIWNQTNLEHHHHHH
B6: PRT-483 (protein)
chain: B5 chain with R70A, S100D, D103N, F181L, E183N, G204A, E228N, K232E, K268E, E269D
B7: PRT-471 (protein)
chain: MVTSVWTKGVTPPTDFIYGEDVLHAPYKAGQGWYDITKAFDGGDDLLCGAATAGNMLHWWFDQNKEQIENYLKKHPEKQKINFNGEQMFDVKEAIDTKDSQTNSELFNYFKEKAFPYLSTKHLGVFPDHVIDMFINGYRLSLTNHGPTPVKRGSKDPRGGIFDAVFTRGDQSKLLTNRHDFKEKTLKEISDLIKQELTEGKALGISHTYANVRINHVINLWGADFDAEGNLEAIYVTDSDSNASIGMKKYFVGVNSNGKVAISAKEIEEDNIGAQVLGLFTLSTGQDIWNQTNLEHHHHHH
B8: PRT-685 (protein)
chain: MQITSVWTKGVTPLTPEQFRNNNEDVIHAPYLPNQGWYDITKAFNGKDNLLCGAATAGNMLHWWFDQNKEEIEAYLKKYPEKQKIIFNNQELFDLRKAINTKDSQTNSALFNYFRDKAFPNLSARQLGVMPDLVLDMFINGYYLNVFKTQSTDVNRPYQDKDKRGGIFDHVFNRGDQTTLLTARHDLKNKTLNDISTIIKQELSSGKALALSHTYANVSISHVINLWGADFNAEGNLEAIYVTDSDANASIGMKKYYVGRNAHGHVAISAKKIEGENIGAQVLGLFTLSSGKEIWQKLSLEHHHHHH
B9: PRT-479 (protein)
chain: MITSVWTKGVTPPTDFIYGEDVLHAPYKAGQGWYDITKAFDGGDDLLCGAATAGNMLHWWFDQNKEQIENYLKKHPEKQKINFNGEQMFDVKEAIDTKDSQTNSELFNYFKEKAFPYLSTKHLGVFPDHVIDMFINGYRLSLTNHGPTPVKRQEKDPRGGIFDAVFGRGDQTKLLTNRHDLKNKTLNEISQLIKQELTEGKALGISHTYANVRINHVINLWGADFDAEGNLEAIYVTDSDSNASIGMKKYFVGVNSNGKVAISAKEIEEDNIGAQVLGLFTLSTGQKIWNKTNLEHHHHHH
B10: PRT-467 (protein)
chain: B9 chain with Y18K, L23F, E66D, N70R, K74E, I131L, N177S, I205L, N257A, E268K
B11: PRT-525 (protein)
chain: MITSVWTKGVTPPAKFTQGEDVFHAPYVANQGWYDITKTFNGKDNLLCGAATAGNMLHWWFDQNKEEIEAYLKKHPEKQKIIFNNQELFDLKAVINTKDSQTNSALFNYFKDKAFPNLSARRLGVFPDLVLDMFINGYYLNVYKTQTTDVNRTYQTKDRRGGIFDAVFTRGVQSKLLTERHDLKNKTLKEISDLIKQELTEGKALGLSHTYANVRINHVINLWGADFDSNGNLEAIYVTDSDTNASIGMKKYFVGVNSAGKVAISAKEIKEDNIGAQVLGLFTLSTGQDIWNQTNLEHHHHHH
B12: PRT-522 (protein)
chain: B11 chain with A14T, K15D, T17I, Q18K, V28K, N30G, L183F, N185E
B13: PRT-477 (protein)
chain: MVTSVWTKGVTPPTNFTYGEDVLHAPYVANQGWYDITKTFNGKDDLLCGAATAGNMLHWWFDQNKEQIENYLKKHPEKQKINFNGEQMFDVKEAIDTKDSQLDSKLFEYFKEKAFPYLSTKHLGVFPDHVIDMFINGYRLSLTNHGPTPVKRGSKDPRGGIFDAVFTRGDQSKLLTNRHDLKNKTLKEISDLIKQELTEGKALGISHTYANVRINHVINLWGADFDAEGNLEAIYVTDSDSNASIGMKKYFVGVNSNGKVAISAKEIEEDNIGAQVLGLFTLSTGQDIWNQTNLEHHHHHH
B14: PRT-452 (protein)
chain: MVTSVWTKGVTPPANFTQGEDVFHAPYKANQGWYDITKAFDGGDDLLCGAATAGNMLHWWFDQNKDQIEAYLKEHPEKQKINFNGEQMFDVKEAIDTKDDQTNSELFNYFKEKAFPYLSTKHLGVFPDHVLDMFINGYRLSLTNHGPTPVKEGSKDPRGGIFDAVFTRGDQSKLLTSRHDLKNKTLKEISDLIKQELTEGKALALSHTYANVRINHVINLWGADFDSNGNLEAIYVTDSDSNASIGMKKYFVGVNSAGKVAISAKEIEDDNIGAQVLGLFTLSTGQDIWNQTNLEHHHHHH

Changes are numbered by the printed parent chain.

The target in this data set is pooled human IgG (human IgG1, 2, 3 and 4).
B1 showed an Enzyme Activity Endpoint Assay: Fab′2 of 1310 ng/µL, an Enzyme Activity Endpoint Assay: Fc of 442 ng/µL, an Enzyme Activity Endpoint Assay: IgG of 0 ng/µL and an Enzyme Activity Endpoint Assay: scIgG of 0 ng/µL.
In the case of B2, the Enzyme Activity Endpoint Assay: Fab′2 came out at 1220 ng/µL, the Enzyme Activity Endpoint Assay: Fc came to 423 ng/µL, the Enzyme Activity Endpoint Assay: IgG was found to be 0 ng/µL and the Enzyme Activity Endpoint Assay: scIgG turned out to be 0 ng/µL.
B3 gave an Enzyme Activity Endpoint Assay (purified): Fab'2 of 543 ng/µL, an Enzyme Activity Endpoint Assay (purified): Fc of 375 ng/µL, an Enzyme Activity Endpoint Assay (purified): IgG of 0 ng/µL and an Enzyme Activity Endpoint Assay (purified): scIgG of 212 ng/µL. Moreover, the Enzyme Activity Endpoint Assay: Fab′2 was determined as 543 ng/µL, the Enzyme Activity Endpoint Assay: Fc was found to be 375 ng/µL, the Enzyme Activity Endpoint Assay: IgG stood at 0 ng/µL and the Enzyme Activity Endpoint Assay: scIgG was determined as 212 ng/µL.
On to B4, for which the Enzyme Activity Endpoint Assay: Fab′2 amounted to 1280 ng/µL, the Enzyme Activity Endpoint Assay: Fc came to 436 ng/µL, the Enzyme Activity Endpoint Assay: IgG is 0 ng/µL and the Enzyme Activity Endpoint Assay: scIgG came to 0 ng/µL.
In turn, B5 displayed an Enzyme Activity Endpoint Assay: Fab′2 of 145 ng/µL, an Enzyme Activity Endpoint Assay: Fc of 210 ng/µL, an Enzyme Activity Endpoint Assay: IgG of 107 ng/µL and an Enzyme Activity Endpoint Assay: scIgG of 627 ng/µL.
B6 showed an Enzyme Activity Endpoint Assay: Fab′2 of 1260 ng/µL, an Enzyme Activity Endpoint Assay: Fc of 459 ng/µL, an Enzyme Activity Endpoint Assay: IgG of 0 ng/µL and an Enzyme Activity Endpoint Assay: scIgG of 0 ng/µL.
In turn, B7 returned an Enzyme Activity Endpoint Assay: Fab′2 of 1110 ng/µL, an Enzyme Activity Endpoint Assay: Fc of 357 ng/µL, an Enzyme Activity Endpoint Assay: IgG of 0 ng/µL and an Enzyme Activity Endpoint Assay: scIgG of 0 ng/µL.
On to B8, for which the Enzyme Activity Endpoint Assay: Fab′2 worked out at 1200 ng/µL, the Enzyme Activity Endpoint Assay: Fc came out at 448 ng/µL, the Enzyme Activity Endpoint Assay: IgG turned out to be 0 ng/µL and the Enzyme Activity Endpoint Assay: scIgG turned out to be 0 ng/µL.
B9 displayed an Enzyme Activity Endpoint Assay: Fab′2 of 1340 ng/µL, an Enzyme Activity Endpoint Assay: Fc of 481 ng/µL, an Enzyme Activity Endpoint Assay: IgG of 0 ng/µL and an Enzyme Activity Endpoint Assay: scIgG of 0 ng/µL.
B10 returned an Enzyme Activity Endpoint Assay: Fab′2 of 685 ng/µL, an Enzyme Activity Endpoint Assay: Fc of 374 ng/µL, an Enzyme Activity Endpoint Assay: IgG of 57 ng/µL and an Enzyme Activity Endpoint Assay: scIgG of 375 ng/µL.
The matching figures for B11: 1340 ng/µL, 386 ng/µL, 0 ng/µL and 0 ng/µL.
Regarding B12, the Enzyme Activity Endpoint Assay: Fab′2 is 736 ng/µL, the Enzyme Activity Endpoint Assay: Fc stood at 253 ng/µL, the Enzyme Activity Endpoint Assay: IgG came to 0 ng/µL and the Enzyme Activity Endpoint Assay: scIgG was 0 ng/µL.
The protein B13 registered an Enzyme Activity Endpoint Assay: Fab′2 of 543 ng/µL, an Enzyme Activity Endpoint Assay: Fc of 277 ng/µL, an Enzyme Activity Endpoint Assay: IgG of 0 ng/µL and an Enzyme Activity Endpoint Assay: scIgG of 224 ng/µL.
B14 registered an Enzyme Activity Endpoint Assay: Fab′2 of 0 ng/µL, an Enzyme Activity Endpoint Assay: Fc of 0 ng/µL, an Enzyme Activity Endpoint Assay: IgG of 1870 ng/µL and an Enzyme Activity Endpoint Assay: scIgG of 0 ng/µL.

Source of the values: patent publication US20250027068.
